The supplement of paper PMC9170038

Experiments:
MS2 coat protein [1] = assay: apparent KD of MS2 coat protein; designed switch direction (-1 OFF switch, 1 ON switch): 1; higher = weaker reporter binding
In short: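 SNAP-549-labelled MS2 coat protein was titrated, doubling from 0.7 or 1.5 nM to 3 µM, over designed RNA switches transcribed on Illumina chips by stalled E. coli RNA polymerase. Runs were done without input, with 200 uM small-molecule ligand, or with an oligonucleotide input. Apparent KD is the per-design median over clusters of curve-fitted normalised fluorescence.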

MS2 coat protein [2] = assay: apparent KD of MS2 coat protein; higher = weaker reporter binding; details: Eterna round: R107
In short: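 With or without constant ligand, designed RNA switches in 100 mM Tris-HCl pH 7.5, 80 mM KCl and 4 mM MgCl2 were titrated with SNAP-549-labelled MS2 coat protein. Concentrations went up in twofold steps from 0.7 or 1.5 nM to 3 µM. The switches had been transcribed on-chip from Illumina sequencing clusters, and apparent KD is the per-design median of normalised cluster binding-curve fits.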

[3] = input ligand: microRNA oligo, concentration not stated
[4] = input ligand: theophylline 20 uM
[5] = input ligand: theophylline 2 mM
[6] = input ligand: tryptophan 2.4 mM

Sequence	apparent KD of MS2 coat protein (MS2 coat protein [1]; input ligand: FMN 200 uM) [nM]	apparent KD of MS2 coat protein (MS2 coat protein [1]; [3]) [nM]	apparent KD of MS2 coat protein (MS2 coat protein [1]; input ligand: none) [nM]	apparent KD of MS2 coat protein (MS2 coat protein [2]; input ligand: arginine 13.2 mM) [nM]	apparent KD of MS2 coat protein (MS2 coat protein [2]; input ligand: none) [nM]	apparent KD of MS2 coat protein (MS2 coat protein [2]; [4]) [nM]	apparent KD of MS2 coat protein (MS2 coat protein [2]; [5]) [nM]	apparent KD of MS2 coat protein (MS2 coat protein [2]; [6]) [nM]
AAAAAAAAGUCAGGAUAUGAAUGGAAAGUACAUGAGGAUCACCCAUGUUAUGGAAAAAAAAAACGUUAGAAGGGAUAAAAAAAA [AK SSNG2-V2-1] (Eterna round: R96, puzzle: Same State NG 2)	61.3	90.2	62.3					
AAAAAACAUGAGGAUCACCCAUGUAAAAAAAUGGGAGGAUAUACAAAAACAAAAAAAAAAGUAGAAGGCCUGAAAA [same state 9] (Eterna round: R96, puzzle: Same State 1)	59.2	478	520					
UGUGCAUGAGUUGGAAAAGCUCAUGGGCAUCGAGGACCGGUACGGCCGCCACUCGGCUGUACAUGAGGAUCACCCAUGUCAGGGU [#1 Same State - Tryptophan A Attempt #23 (HarryS)]				82	288	141	170	891
UUAAUCAUAUUAGAAAACUAAUAUGCAGAAGGAGCGUGAUAAAACACAGGUAGGUCGCUGAAGGGAACAUGAGGAUCACCCAUGU [AstrosSSArgA#8]				26.5	25.7	32.7	33	26
UUAAUCUAUAAUGAAAACAUUAUAGCAGAAGGAGCGUGAUAAAACACAGGUAGGUCGCUGAAGGGAACAUGAGGAUCACCCAUGU [AstrosSSArgA#12]				24.3	28.7	40.5	39.4	23.6
UUAAUCUUGGAUGAAAACAUUUAAGCAGAAGGAGCGUGAUAAAACACAGGUAGGUCGCUGAAGGGAACAUGAGGAUCACCCAUGU [AstrosSSArgA#15]				22.5	38	28.8	31.7	32.9
UUAAUCUUUAUUGAAAACAAUAAAGCAGAAGGAGCGUGAUAAAACACAGGUAGGUCGCUGAAGGGAACAUGAGGAUCACCCAUGU [AstrosSSArgA#13]				36.4	26.6	32	35.1	24.1
UUAAUGAUAUAUCAUAUGAUAUAUCCAGAAGGAGCGUCAUAAAUGGCAGGUAGGUCGCUGAAGGCAACAUGAGGAUCACCCAUGU [#16 Same State - Arginine A]				20.1	28.6	44.6	32.6	24.4
UUAGUAACGACGGCCGCCACUGAUUUUGGACAUGAGGAUCACCCAUGUAAAGAUCCUAGAAUGGUCAGGACCGGGUCUGAUAAUG [Exclusion Tryptophane B GF4]				35	35.3	40	54	64.4
UUAUAUAUACAUGAGGAUCACCCAUGUGAUACCAGCCUGGAAACAGGCCCUUGGCAGCACAAAUACUCCAGAAAAUAUAAUAAAU [MAT - Exclusion Theophlline A - Mod of Eli - D4]				26.1		56.8		27.8
UUAUUUAUAAAUGAUACCAGCCGAUUGGCCGCAAAUCCUAACAUGAGGAUCACCCAUGUCGGCCCUUGGCAGCAUUUAUGGGUUU [XTheo B #28]				56		134		65.1
UUAUUUAUAAUGGAUACCAGUUUAAUGGCCGCAAAUCCUGACAUGAGGAUCACCCAUGUAAGCCCUUGGCAGCUGUUAUGGGUUU [XTheo B #24]				34.2		47.3		35.2
UUAUUUAUAGGGUAUAUCAGAUUAACUGAAGGAGCGUGGUAAUUCACAGGUAGGUCGCAGAUGGAACAUGAGGAUCACCCAUGUU [JR_ExcArginiA_Sub015]				18.2	19.2	28.5	22.2	20.8
UUCGUUUGCGGAAGGAGCGACGGACAUCGGUGAACGACGGACAUGAGGAUCACCCAUGUACGUCAGGUAGGUCGCCGCUAAGAGU [Enbiceri]				13.7	13.2	13.8	15.2	13.8
UUCUGGUCCCGUGAUACCAGAGACAUGAGGAUCACCCAUGUACAUGAGGAUCACCCAUGUUUCCCUUGGCAGCACUGCAGUGAGC [Exclusion Theophylline B GF 15]				56	261	160	332	147
UUCUUUAAGUCGGCCGCCACUGAAACAUGAGGAUCACCCAUGUAAAUUUGGGAGUAGGUAUAUUACAGGACCGGGACUAUAGUAA [JR_ExcTryptoB_Sub021]				29.2		31.2	27.3	
UUCUUUGACGAUCUGGGUUUACCAGAUCGACGAGGACCGGUACGGCCGCCACUCGUGUUUUCUUUACAUGAGGAUCACCCAUGUU [#16Tryptophan A Same State]				16.2		22.6	19.1	
UUGACAUGAGGAUCACCCAUGUAAACUGAAGGAGCGUCGAAAAUGACAGGUAGGUCGCAGAAUAAUAAUGGUGAUCGUAAAUAUU [#12 Exclusion - Arginine A]				42.6	79	79.9	83.9	63
UUGGAUGAAGGAGUGAAAAGCAACUCAGAUACCAGUCUGAGUAAUGACCCUUGGCAGCUGAGAACAUGAGGAUCACCCAUGUGAC [theeternabot_exclusion_MS2_Theo_A_34]				11.7		15.5		17.1
UUGGGUUUGUGAAGGAGCGGGAAUGUUUUAUAGUGGAUCCUAACAUGAGGAUCACCCAUGUCCCAGGUAGGUCGCGCGGGUUUGG [12.S]				40.1	64.8	100	79.9	55.5
UUGUGUUUAUUGGUUUAGCUAUUAUGGUUGCGAGGACCGGUACGGCCGCCACUCGAUGGAACAUGAGGAUCACCCAUGUGAGGAA [JR_ExcTryptoA_Sub013]				14.7	28	31.8	33.9	22.1
UUGUUGUUUGGAAGGAGCGUGGAUGAGUUAGAACAUGAGGAUCACCCAUGUUGGAUGAUACCACAGGUAGGUCGCCGGGUGGUGG [11.Z]				229	16.6	48.8	24.5	21.4
UUUAAUUUAAUAGAUACCAGCUAAUAAUAAUCCCGGAGGACAUGAGGAUCACCCAUGUGGAGCCCUUGGCAGCUAAAAUAAAUUU [Exclusion - Theophylline B]				20.1	32.9	63.7	22.4	28.9
UUUGAUAUGACAGAUACCAGCGUGUUGUUGAACAUGAGGAUCACCCAUGUAGUGAUCAAGCGCCCUUGGCAGCUGGUGUGUUAGG [7.P]				55.5		323		158
UUUUAAAGCAUGGCGUAUCGGAAAACCGAUACCAGUACAGAAAUGUACCCUUGGCAGCGGAAUUUUACAUGAGGAUCACCCAUGU [Ex Theophylline A 1]				14.9		19.7		12.7
UUUUUUUUGGGAAGGAGCGGGAACAUGUGGAUCUCCCAUGUACAUGAGGAUCACCCAUGUACCCAGGUAGGUCGCCCAUUUUUUU [Exclusion - Arginine B]				69.5	102	94.7	112	66.2
UUUUUUUUGGGAAGGAGCGGGAACAUGUGGAUCUCCCAUGUACAUGAGGAUCACCCAUGUACCCAGGUAGGUCGCUCAUUUUUUU [Exclusion - Arginine B]				28.4	25.8	38.6	37.8	26
